Values quoted from earlier work in paper PMC4856733.

Target: vinculin tail tail (Homo sapiens) (UniProt P18206)

Kd: < 1 nM
Substance: vinculin head head (from UniProt P18206)
